Reference: article PMC7544229, “Periphilin self-association underpins epigenetic silencing by the HUSH complex” (Nucleic Acids Research, 2020)

T1: TASOR fragment (residues 1014–1095) (human, UniProt Q9UK61-1 1014-1095)
T1 construct: codon-optimized synthetic gene; untagged; Residues 1055–1071 are disordered in the crystal structure; also called untagged TASOR fragment; minimal core TASOR; source: E. coli BL21 (DE3), co-expressed with His6-Periphilin fragments from pRSF-Duet, co-purified with Periphilin
T1 sequence (looked up): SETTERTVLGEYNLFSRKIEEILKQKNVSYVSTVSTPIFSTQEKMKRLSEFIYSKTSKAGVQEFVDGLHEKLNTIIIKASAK


Assays:
[1] = target: T1, TASOR fragment (residues 1014–1095); assay: native MS; non-denaturing mass spectrometry of the His6-Periphilin 285–374 / TASOR 1014–1095 complex; conditions not shown; details: both partners purified
[2] = target: the molecule itself; assay: crystal structure; Periphilin 292–367 with TASOR 1014–1095; sitting drop, 18°C, 0.1 M citrate pH 4.5, 1 M ammonium sulfate; SAD phasing with Br; refined at 2.5 Å
[3] = target: T1, TASOR fragment (residues 1014–1095); assay: SEC-MALS; minimal Periphilin-TASOR core complex; Superdex 200 10/300 in PBS, 293 K, 0.5 ml/min; details: both partners purified

stoichiometry N [1]	stoichiometry N [3]	Binder	binding result [2]
2 Periphilin per TASOR		His6-tagged Periphilin residues 285–374 (domain or fragment, human, UniProt Q8NEY8-2 285-374, looked up, codon-optimized synthetic gene; Construct used for NMR and native mass spectrometry of the Periphilin-TASOR complex; not shown: His6, N-terminal, kept) GIELFEDSQLTTRSKAIASKTKEIEQVYRQDCETFGMVVKMLIEKDPSLEKSIQFALRQNLHEIGERCVEELKHFIAEYDTSTQDFGEPF	
	2 Periphilin per TASOR	Periphilin fragment (residues 292–367) (domain or fragment, human, UniProt Q8NEY8-2 292-367, looked up, codon-optimized synthetic gene; preceded by a His6 tag and a TEV site (ENLYFQG), digested with TEV protease; Two copies of this chain form a homodimer in the 2:1 complex with TASOR; A residue of the TEV site (G) may remain at the N-terminus after cleavage; not shown: His6, N-terminal, cleaved) SQLTTRSKAIASKTKEIEQVYRQDCETFGMVVKMLIEKDPSLEKSIQFALRQNLHEIGERCVEELKHFIAEYDTST	binds
